Assay results taken from patent publication US20160045487A1, “COMPOSITIONS AND METHODS FOR TREATING NEUROPATHY” (CHILDEREN'S MEDICAL CENTER CORPORATION, priority 2013, published 2016).

B1: GDNF: Glial cell line-derived neurotrophic factor, GFRα1 ligand; purchased from Peprotech (protein, UniProt P39905 78-211, looked up)
Glial cell line-derived …: SPDKQMAVLPRRERNRQAAAANPENSRGKGRRGQRGKNRGCVLTAIHLNVTDLGLGYETKEELIFRYCSGSCDAAETTYDKILKNLSRNRRLVSDKVGQACCRPIAFDDDLSFLDDNLVYHILRKHSAKRCGCI
B2: NRTN: neuturin, GDNF family ligand of GFRα2; purchased from Peprotech (protein, UniProt Q99748 96-197, looked up)
Neurturin: ARLGARPCGLRELEVRVSELGLGYASDETVLFRYCAGACEAAARVYDLGLRRLRQRRRLRRERVRAQPCCRPTAYEDEVSFLDAHSRYHTVHELSARECACV

What was measured:
RET [1] = target: T1, RET (Mus musculus, UniProt P35546); assay: RET phosphorylation in control transfected (mGFP) N2A cells; type: cell-based, murine; conditions: 2 nM GDNF or 1 nM ARTN
T1 construct: endogenous in cells
T1 sequence (P35546 29-1115): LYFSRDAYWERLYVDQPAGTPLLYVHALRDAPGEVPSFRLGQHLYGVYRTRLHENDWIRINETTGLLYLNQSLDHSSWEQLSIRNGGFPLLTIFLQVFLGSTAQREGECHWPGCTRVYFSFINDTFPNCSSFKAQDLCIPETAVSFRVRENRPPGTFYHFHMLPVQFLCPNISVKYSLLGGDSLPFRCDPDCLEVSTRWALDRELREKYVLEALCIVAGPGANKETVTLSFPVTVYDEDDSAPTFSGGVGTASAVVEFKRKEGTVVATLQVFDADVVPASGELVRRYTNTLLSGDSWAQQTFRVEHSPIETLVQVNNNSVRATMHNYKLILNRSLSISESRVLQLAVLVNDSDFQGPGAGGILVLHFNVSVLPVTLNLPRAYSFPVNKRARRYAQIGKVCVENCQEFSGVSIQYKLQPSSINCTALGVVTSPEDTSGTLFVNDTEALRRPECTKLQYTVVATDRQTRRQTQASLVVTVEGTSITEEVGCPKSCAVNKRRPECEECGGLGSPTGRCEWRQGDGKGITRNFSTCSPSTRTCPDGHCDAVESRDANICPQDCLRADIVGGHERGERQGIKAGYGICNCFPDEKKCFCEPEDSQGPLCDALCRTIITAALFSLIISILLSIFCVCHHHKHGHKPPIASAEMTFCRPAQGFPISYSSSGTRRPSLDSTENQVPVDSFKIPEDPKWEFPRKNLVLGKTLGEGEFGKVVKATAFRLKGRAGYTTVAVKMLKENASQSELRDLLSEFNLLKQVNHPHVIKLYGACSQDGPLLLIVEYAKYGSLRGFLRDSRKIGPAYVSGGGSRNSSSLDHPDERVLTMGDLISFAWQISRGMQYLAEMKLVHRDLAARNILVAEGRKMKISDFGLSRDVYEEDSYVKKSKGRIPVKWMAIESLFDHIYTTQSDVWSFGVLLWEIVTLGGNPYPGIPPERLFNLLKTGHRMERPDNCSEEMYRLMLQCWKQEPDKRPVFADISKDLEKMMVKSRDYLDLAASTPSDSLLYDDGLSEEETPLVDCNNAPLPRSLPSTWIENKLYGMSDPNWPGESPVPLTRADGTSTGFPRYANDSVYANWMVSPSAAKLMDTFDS
Method: (§1) Since the original report argued that XIB4035 displaces GDNF binding to GFRα1 expressing cells (FIG. 2 in Tokugawa et al., Neurochem Int 42, 81-86 (2003).), potentially ARTN, on TH-luciferase activity and Ret phosphorylation. […] In this experiment, cells were treated with GDNF or ARTN with or without XIB4035 for 10 minutes and cell lysates were either collected immediately or treatment was washed out and replaced with growth media for 30, 60, or 120 minutes. […] Therefore, we tested cells expressing only one GFRα using either N2A cells (which express RET) transfected with GFRα1 or GFRα3 expression constructs, or B(E)2-C cells, which express only GFRα2 together with RET. […] The GFRα1 or GFRα3 transfected N2A cells were then treated with XIB4035 alone, the appropriate ligand for the expressed receptor alone, or XIB4035 and ligand in combination for 10 minutes, and collected lysates immediately after treatment or 60 minutes after washout. […] Similar results were obtained with GFRα2 and NRTN using B(E)2-C cells (FIG. 8). Thus, XIB4035 is a positive modulator of signaling by GDNF family ligands and their receptors, not an agonist for GFRα1 as previously reported. […]

[2] = tested on: GFRα/RET receptor signaling; assay: Tyrosine hydroxylase promoter luciferase reporter assay in SH-SY5Y-THpGL3 cells; type: cell-based, human; conditions: for maximal effect, luciferase activity: 18 nM ligand alone; for minimal ligand dose necessary to induce luciferase activity above control / luciferase activity versus ligand concentration: ligand alone; for minimal ligand dose necessary to induce luciferase activity above control: 10 minutes, washout, overnight; for luciferase activity versus ligand concentration: luciferase measured 18 hours later
Text: (§2) One goal of these studies was to determine if XIB4035 could be used for treating SFN in humans. Using the Neuro2A (N2A) murine neuroblastoma cell line, Tokugawa et al. (supra) reported XIB4035 as a competitive agonist for the GDNF receptor GFRα1 that activates the RET receptor. Since populations of DRG sensory neurons express different GFRα receptors, thus making them preferentially responsive to the particular ligands, it was important to determine if XIB4035 was specific to GFRα1 or could act on other family members. Since PSPN has no effect on peripheral sensory neurons, the GFRα1, GFRα2, and GFRα3 receptors were the focus of these studies. The SH-SY5Y, a human neuroblastoma cell line expressing mRNA for GFRα1, GFRα2, and GFRα3, was used to perform two cell-based assays; immunoblots measuring RET phosphorylation and a luciferase reporter assay using the tyrosine hydroxylase (TH) promoter. For the latter two paradigms were used, either overnight treatment immediately followed by luciferase activity measurements or 10 minute treatments followed by washout and overnight incubation prior to measurements. GDNF and ARTN induced robust TH-luciferase activity in a dose dependent manner (FIG. 3E). Because the responses to GDNF and ARTN were more robust, these two factors were chosen for further analysis.
The tyrosine hydroxylase promoter was cloned into the pGL3 basic vector (Promega, Madison, Wis., USA) at the Mlu I and Hind III sites, as previously described (Zwick, supra) (TH-pGL3). Briefly, a 2 Kb promoter region upstream from the transcription initiation site of the rat TH gene was cloned from genomic DNA using the primer sequences, […] and […]. SH-SY5Y cells were co-transfected with the TH-pGL3 and the pBabe-puromycin expression vectors at a molar ratio of 10:1. Cells were selected for stable puromycin resistance at a final concentration of 0.5 μg/ml of puromycin-dihydrochloride. Stable colonies were selected and tested for TH-directed luciferase response to GDNF family ligand stimulation. One stable clone, SH-SY5Y-THpGL3, with good signal-to-noise ratio was selected for use in the experiments.
SH-SY5Y-THpGL3 cells were maintained in DMEM/F12, 5% FBS, and 1% penicillin/streptomycin and plated on collagen coated plates (4 μg/ml). Neuro-2A cells were grown in MEM, 5% FBS, and 1% penicillin/streptomycin. BE(2)-C cells were grown in DMEM/F12 media containing 5% FBS and 1% penicillin/streptomycin. PC-12 cells were maintained in media containing RPMI-1640, 10% horse serum, 5% FBS, and 1% penicillin/streptomycin on collagen coated plates. For luciferase assays, cells were treated for either 10 minutes with washout or overnight with various molecules and assayed for firefly luciferase 16-24 hours post-treatment using the luciferase assay system (Promega, Madison, Wis., USA).

GFRα3/RET = target: T2, GFRα3/RET (UniProt O60609+P35546); assay: RET phosphorylation in N2A cells transfected with GFRα3; type: cell-based, human GFRα3 in murine N2A cells; conditions: 1 nM ARTN
T2 construct: N2A cells (which express RET) transfected with GFRα1 or GFRα3 expression constructs; expressed in transfected cells; host or cells: Neuro2A (N2A) cells; GFRα3 plasmid was a gift from Dr. Milbrandt; RET is endogenous
T2 sequence (O60609 32-374 limits assumed): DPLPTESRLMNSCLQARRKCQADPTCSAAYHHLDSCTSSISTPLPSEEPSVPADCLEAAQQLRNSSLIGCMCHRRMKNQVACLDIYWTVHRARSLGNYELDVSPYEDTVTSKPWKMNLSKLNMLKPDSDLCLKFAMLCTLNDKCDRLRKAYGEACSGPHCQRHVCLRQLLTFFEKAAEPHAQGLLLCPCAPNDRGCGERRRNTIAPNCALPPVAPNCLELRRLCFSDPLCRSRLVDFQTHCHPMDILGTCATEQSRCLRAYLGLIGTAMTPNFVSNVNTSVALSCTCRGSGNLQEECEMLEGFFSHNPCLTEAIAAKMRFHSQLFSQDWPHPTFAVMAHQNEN
T2 sequence (P35546 29-1115): as the sequence (P35546 29-1115) above
Method: (§3) Since the original report argued that XIB4035 displaces GDNF binding to GFRα1 expressing cells (FIG. 2 in Tokugawa et al., Neurochem Int 42, 81-86 (2003).), potentially ARTN, on TH-luciferase activity and Ret phosphorylation. […] In this experiment, cells were treated with GDNF or ARTN with or without XIB4035 for 10 minutes and cell lysates were either collected immediately or treatment was washed out and replaced with growth media for 30, 60, or 120 minutes. […] Therefore, we tested cells expressing only one GFRα using either N2A cells (which express RET) transfected with GFRα1 or GFRα3 expression constructs, or B(E)2-C cells, which express only GFRα2 together with RET. […] The GFRα1 or GFRα3 transfected N2A cells were then treated with XIB4035 alone, the appropriate ligand for the expressed receptor alone, or XIB4035 and ligand in combination for 10 minutes, and collected lysates immediately after treatment or 60 minutes after washout. […] Similar results were obtained with GFRα2 and NRTN using B(E)2-C cells (FIG. 8). Thus, XIB4035 is a positive modulator of signaling by GDNF family ligands and their receptors, not an agonist for GFRα1 as previously reported.
(§4) For phosphorylated Ret immunoblot experiments, cells were treated with various combinations of molecules for 10 minutes and either collected immediately or had treatment washed out and returned to control treatment media for the times indicated prior to cell collection. Lysates were collected in buffer containing: 50 mM Tris-HCL, 1% TX-100, 0.25% Deoxycholic acid, 150 mM sodium chloride, 1 mM EDTA, 0.1 mM sodium fluoride, 0.1 mM sodium pyrophosphate, 0.02 mM sodium orthovanadate, and protease inhibitors Immunoblots were blocked in 5% bovine serum albumin in tris-buffered saline+0.2% Tween 20+0.1 mM sodium fluoride, 0.1 mM sodium pyrophosphate, and 0.02 mM sodium orthovanadate and probed in blocking solution using anti-phospotyrosine (4G10) mouse monoclonal antibody (1:2000; EMD Milipore Corp., Billerica, Mass.). […]

GFRα1/RET = target: T3, GFRα1/RET (UniProt P35546+Q62997); assay: RET phosphorylation in N2A cells transfected with GFRα1; type: cell-based, rat GFRα1 in murine N2A cells; conditions: 2 nM GDNF
T3 construct: N2A cells (which express RET) transfected with GFRα1 or GFRα3 expression constructs; expressed in transfected cells; host or cells: Neuro2A (N2A) cells; GFRα1 plasmid was a gift from Dr. Milbrandt; RET is endogenous
T3 sequence (Q62997 25-430 limits assumed): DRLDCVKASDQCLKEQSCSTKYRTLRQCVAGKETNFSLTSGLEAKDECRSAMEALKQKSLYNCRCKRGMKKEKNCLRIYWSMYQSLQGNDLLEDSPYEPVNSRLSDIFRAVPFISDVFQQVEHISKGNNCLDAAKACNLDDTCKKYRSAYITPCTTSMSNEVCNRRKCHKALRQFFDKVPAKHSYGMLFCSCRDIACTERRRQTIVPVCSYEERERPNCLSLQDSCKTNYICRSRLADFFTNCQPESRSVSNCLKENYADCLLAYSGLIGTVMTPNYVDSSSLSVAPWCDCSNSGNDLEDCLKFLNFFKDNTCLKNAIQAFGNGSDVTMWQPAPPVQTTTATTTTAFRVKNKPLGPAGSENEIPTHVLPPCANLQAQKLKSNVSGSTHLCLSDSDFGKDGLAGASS
T3 sequence (P35546 29-1115): as the sequence (P35546 29-1115) above
Method: as §3, §4

RET [3] = target: T4, RET (Homo sapiens, UniProt P07949+P56159); assay: RET phosphorylation phospho-tyrosine Western blot in SH-SY5Y cells; type: cell-based; conditions: 2 nM GDNF, two or 10 minutes
T4 construct: endogenous in cells; host or cells: SH-SY5Y (SH-SY5Y-THpGL3) human neuroblastoma cells
T4 sequence (P07949 29-1114): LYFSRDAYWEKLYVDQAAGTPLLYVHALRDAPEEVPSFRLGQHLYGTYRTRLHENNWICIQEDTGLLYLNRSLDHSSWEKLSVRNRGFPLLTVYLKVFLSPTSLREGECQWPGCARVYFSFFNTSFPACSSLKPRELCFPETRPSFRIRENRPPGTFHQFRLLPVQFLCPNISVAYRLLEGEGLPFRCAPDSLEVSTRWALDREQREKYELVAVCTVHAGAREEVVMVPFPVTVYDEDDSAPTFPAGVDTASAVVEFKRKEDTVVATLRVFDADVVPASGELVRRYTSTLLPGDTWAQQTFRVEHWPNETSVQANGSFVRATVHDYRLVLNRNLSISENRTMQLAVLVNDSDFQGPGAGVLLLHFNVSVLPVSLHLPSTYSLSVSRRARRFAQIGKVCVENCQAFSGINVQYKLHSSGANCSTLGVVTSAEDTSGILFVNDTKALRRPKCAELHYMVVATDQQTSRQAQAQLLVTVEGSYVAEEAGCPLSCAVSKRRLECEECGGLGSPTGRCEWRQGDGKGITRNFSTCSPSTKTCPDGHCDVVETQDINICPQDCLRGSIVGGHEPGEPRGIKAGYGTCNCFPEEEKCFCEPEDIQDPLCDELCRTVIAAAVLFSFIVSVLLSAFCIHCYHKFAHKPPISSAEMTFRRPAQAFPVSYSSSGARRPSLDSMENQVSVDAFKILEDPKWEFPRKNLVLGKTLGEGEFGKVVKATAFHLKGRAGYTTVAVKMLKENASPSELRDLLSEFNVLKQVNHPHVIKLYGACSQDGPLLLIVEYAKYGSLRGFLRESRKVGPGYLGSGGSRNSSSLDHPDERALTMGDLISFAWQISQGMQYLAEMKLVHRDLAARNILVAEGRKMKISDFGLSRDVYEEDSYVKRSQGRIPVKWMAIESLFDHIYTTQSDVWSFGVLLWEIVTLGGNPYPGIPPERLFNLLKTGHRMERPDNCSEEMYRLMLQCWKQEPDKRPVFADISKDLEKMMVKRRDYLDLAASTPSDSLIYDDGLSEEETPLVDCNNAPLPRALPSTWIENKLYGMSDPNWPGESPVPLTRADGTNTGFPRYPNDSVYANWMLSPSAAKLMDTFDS
T4 sequence (P56159 25-429 limits assumed): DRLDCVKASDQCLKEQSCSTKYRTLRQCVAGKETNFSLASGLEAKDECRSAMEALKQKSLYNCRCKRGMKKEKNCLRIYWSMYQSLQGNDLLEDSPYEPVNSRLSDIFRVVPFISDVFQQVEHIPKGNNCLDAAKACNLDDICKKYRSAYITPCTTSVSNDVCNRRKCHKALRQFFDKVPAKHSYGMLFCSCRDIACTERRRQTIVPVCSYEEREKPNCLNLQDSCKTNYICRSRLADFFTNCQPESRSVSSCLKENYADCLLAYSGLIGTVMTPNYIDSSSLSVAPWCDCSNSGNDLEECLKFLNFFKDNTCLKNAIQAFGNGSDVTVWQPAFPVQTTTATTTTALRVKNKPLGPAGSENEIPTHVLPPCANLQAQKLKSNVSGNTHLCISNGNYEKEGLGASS
Text: as §2
Since the original report argued that XIB4035 displaces GDNF binding to GFRα1 expressing cells (FIG. 2 in Tokugawa et al., Neurochem Int 42, 81-86 (2003).), potentially ARTN, on TH-luciferase activity and Ret phosphorylation. […] In this experiment, cells were treated with GDNF or ARTN with or without XIB4035 for 10 minutes and cell lysates were either collected immediately or treatment was washed out and replaced with growth media for 30, 60, or 120 minutes. […] Therefore, we tested cells expressing only one GFRα using either N2A cells (which express RET) transfected with GFRα1 or GFRα3 expression constructs, or B(E)2-C cells, which express only GFRα2 together with RET. […]

GFRα2/RET = target: T5, GFRα2/RET (Homo sapiens, UniProt O00451+P07949); assay: NRTN/GFRα2-induced RET phosphorylation in B(E)2-C cells; type: cell-based; conditions: 2 nM NRTN alone, 10 minutes, then 60 minutes growth medium
T5 construct: B(E)2-C cells, which express only GFRα2 together with RET; endogenous in cells; host or cells: B(E)2-C / BE(2)-C cells
T5 sequence (O00451 22-444 limits assumed): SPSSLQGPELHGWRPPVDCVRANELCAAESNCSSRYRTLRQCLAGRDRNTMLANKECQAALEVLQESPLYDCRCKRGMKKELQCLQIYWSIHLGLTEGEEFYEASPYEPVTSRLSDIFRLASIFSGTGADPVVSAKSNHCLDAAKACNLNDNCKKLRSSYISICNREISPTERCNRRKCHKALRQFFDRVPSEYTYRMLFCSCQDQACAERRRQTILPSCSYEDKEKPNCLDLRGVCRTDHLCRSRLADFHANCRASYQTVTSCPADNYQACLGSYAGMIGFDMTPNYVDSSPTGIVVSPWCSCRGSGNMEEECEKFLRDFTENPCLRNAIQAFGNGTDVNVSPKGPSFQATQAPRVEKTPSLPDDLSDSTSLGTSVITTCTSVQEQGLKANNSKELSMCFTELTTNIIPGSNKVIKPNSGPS
T5 sequence (P07949 29-1114): as the sequence (P07949 29-1114) above
Method: B(E)2-C cells, which express GFRα2, were treated under different conditions (no treatment, 2 nM NRTN, or 2 nM NRTN with 20 μM XIB4035) for 10 minutes. Cells were either lysed immediately or after incubation in growth medium for an additional 60 minutes.
as §1, with “8).” for “8). Thus, XIB4035 is a positive modulator of signaling by GDNF family ligands and their receptors, not an agonist for GFRα1 as previously reported.”

| Molecule | RET phosphorylation (RET [1]) | maximal effect, luciferase activity [2] | minimal ligand dose necessary to induce luciferase activity above control [2] | luciferase activity versus ligand concentration [2] | RET phosphorylation (GFRα3/RET) | RET phosphorylation (GFRα1/RET) | TH promoter activity (luciferase) ([2]; 2 nM GDNF, 10 minutes then overnight in regular medium, or overnight) | RET phosphorylation (RET [3]) | RET phosphorylation at 60 min (GFRα2/RET) |
| --- | --- | --- | --- | --- | --- | --- | --- | --- | --- |
| ARTN: artemin, GDNF family ligand of GFRα3; purchased from Peprotech | No RET phosphorylation was detected | 2.78±0.44 fold over control | 75 pM | dose-dependent increase | induced RET phosphorylation | – | – | – | – |
| B1 | No RET phosphorylation was detected | 2.76±0.32 fold over control | 75 pM | dose-dependent increase | – | induced RET phosphorylation | increases TH promoter activity | induced | – |
| B2 | – | – | – | dose-dependent increase | – | – | – | – | not detectable |
